Test results reported in publication PMC11703740, “Disparate molecular mechanisms in cardiac ryanodine receptor channelopathies” (Frontiers in Molecular Biosciences, 2024).

Biological target: the molecule itself
Experiment: cross-linking; HEK293 cell homogenate supernatant (20 ug; 5 mM HEPES, 0.3 M sucrose, 10 mM DTT, pH 7.4) with glutaraldehyde (0.0025% or 260 umol/L) for 0-60 min; SDS-PAGE and Western blot with Ab^cMyc; monomer and tetramer bands by densitometry

Protein | stoichiometry N
NT^WT (human RyR2 residues 1-906, cMyc-tagged) (domain or fragment, UniProt Q92736 1-906, looked up, cardiac ryanodine receptor (RyR2), human, N-terminus residues 1-906; also called wild-type RyR2 N-terminus; RyR2-NT; source: HEK293, transiently transfected, in cell homogenate (cross-linking) or CHAPS-solubilized lysate (co-IP)) MADGGEGEDEIQFLRTDDEVVLQCTATIHKEQQKLCLAAEGFGNRLCFLESTSNSKNVPPDLSICTFVLEQSLSVRALQEMLANTVEKSEGQVDVEKWKFMMKTAQGGGHRTLLYGHAILLRHSYSGMYLCCLSTSRSSTDKLAFDVGLQEDTTGEACWWTIHPASKQRSEGEKVRVGDDLILVSVSSERYLHLSYGNGSLHVDAAFQQTLWSVAPISSGSEAAQGYLIGGDVLRLLHGHMDECLTVPSGEHGEEQRRTVHYEGGAVSVHARSLWRLETLRVAWSGSHIRWGQPFRLRHVTTGKYLSLMEDKNLLLMDKEKADVKSTAFTFRSSKEKLDVGVRKEVDGMGTSEIKYGDSVCYIQHVDTGLWLTYQSVDVKSVRMGSIQRKAIMHHEGHMDDGISLSRSQHEESRTARVIRSTVFLFNRFIRGLDALSKKAKASTVDLPIESVSLSLQDLIGYFHPPDEHLEHEDKQNRLRALKNRQNLFQEEGMINLVLECIDRLHVYSSAAHFADVAGREAGESWKSILNSLYELLAALIRGNRKNCAQFSGSLDWLISRLERLEASSGILEVLHCVLVESPEALNIIKEGHIKSIISLLDKHGRNHKVLDVLCSLCVCHGVAVRSNQHLICDNLLPGRDLLLQTRLVNHVSSMRPNIFLGVSEGSAQYKKWYYELMVDHTEPFVTAEATHLRVGWASTEGYSPYPGGGEEWGGNGVGDDLFSYGFDGLHLWSGCIARTVSSPNQHLLRTDDVISCCLDLSAPSISFRINGQPVQGMFENFNIDGLFFPVVSFSAGIKVRFLLGGRHGEFKFLPPPGYAPCYEAVLPKEKLKVEHSREYKQERTYTRDLLGPTVSLTQAAFTPIPVDTSQIVLPPHLERIREKLAENIHELWVMNKIELGWQYGP | 4
NT^A77T (human RyR2 residues 1-906, cMyc-tagged, A77T) (domain or fragment, UniProt Q92736 1-906, looked up, cardiac ryanodine receptor (RyR2), human, N-terminus residues 1-906 with the patient mutation A77T; Mutation made by site-directed mutagenesis in the NT^WT plasmid; a variant reported in patients; also called type II^inter variant; source: HEK293, transiently transfected, in cell homogenate (cross-linking) or CHAPS-solubilized lysate (co-IP)) MADGGEGEDEIQFLRTDDEVVLQCTATIHKEQQKLCLAAEGFGNRLCFLESTSNSKNVPPDLSICTFVLEQSLSVRTLQEMLANTVEKSEGQVDVEKWKFMMKTAQGGGHRTLLYGHAILLRHSYSGMYLCCLSTSRSSTDKLAFDVGLQEDTTGEACWWTIHPASKQRSEGEKVRVGDDLILVSVSSERYLHLSYGNGSLHVDAAFQQTLWSVAPISSGSEAAQGYLIGGDVLRLLHGHMDECLTVPSGEHGEEQRRTVHYEGGAVSVHARSLWRLETLRVAWSGSHIRWGQPFRLRHVTTGKYLSLMEDKNLLLMDKEKADVKSTAFTFRSSKEKLDVGVRKEVDGMGTSEIKYGDSVCYIQHVDTGLWLTYQSVDVKSVRMGSIQRKAIMHHEGHMDDGISLSRSQHEESRTARVIRSTVFLFNRFIRGLDALSKKAKASTVDLPIESVSLSLQDLIGYFHPPDEHLEHEDKQNRLRALKNRQNLFQEEGMINLVLECIDRLHVYSSAAHFADVAGREAGESWKSILNSLYELLAALIRGNRKNCAQFSGSLDWLISRLERLEASSGILEVLHCVLVESPEALNIIKEGHIKSIISLLDKHGRNHKVLDVLCSLCVCHGVAVRSNQHLICDNLLPGRDLLLQTRLVNHVSSMRPNIFLGVSEGSAQYKKWYYELMVDHTEPFVTAEATHLRVGWASTEGYSPYPGGGEEWGGNGVGDDLFSYGFDGLHLWSGCIARTVSSPNQHLLRTDDVISCCLDLSAPSISFRINGQPVQGMFENFNIDGLFFPVVSFSAGIKVRFLLGGRHGEFKFLPPPGYAPCYEAVLPKEKLKVEHSREYKQERTYTRDLLGPTVSLTQAAFTPIPVDTSQIVLPPHLERIREKLAENIHELWVMNKIELGWQYGP | 4
NT^G357S (human RyR2 residues 1-906, cMyc-tagged, G357S) (domain or fragment, UniProt Q92736 1-906, looked up, cardiac ryanodine receptor (RyR2), human, N-terminus residues 1-906 with the CPVT mutation G357S; Mutation made by site-directed mutagenesis in the NT^WT plasmid; a variant reported in patients; also called type II^intra variant; source: HEK293, transiently transfected, in cell homogenate (cross-linking) or CHAPS-solubilized lysate (co-IP)) MADGGEGEDEIQFLRTDDEVVLQCTATIHKEQQKLCLAAEGFGNRLCFLESTSNSKNVPPDLSICTFVLEQSLSVRALQEMLANTVEKSEGQVDVEKWKFMMKTAQGGGHRTLLYGHAILLRHSYSGMYLCCLSTSRSSTDKLAFDVGLQEDTTGEACWWTIHPASKQRSEGEKVRVGDDLILVSVSSERYLHLSYGNGSLHVDAAFQQTLWSVAPISSGSEAAQGYLIGGDVLRLLHGHMDECLTVPSGEHGEEQRRTVHYEGGAVSVHARSLWRLETLRVAWSGSHIRWGQPFRLRHVTTGKYLSLMEDKNLLLMDKEKADVKSTAFTFRSSKEKLDVGVRKEVDGMGTSEIKYSDSVCYIQHVDTGLWLTYQSVDVKSVRMGSIQRKAIMHHEGHMDDGISLSRSQHEESRTARVIRSTVFLFNRFIRGLDALSKKAKASTVDLPIESVSLSLQDLIGYFHPPDEHLEHEDKQNRLRALKNRQNLFQEEGMINLVLECIDRLHVYSSAAHFADVAGREAGESWKSILNSLYELLAALIRGNRKNCAQFSGSLDWLISRLERLEASSGILEVLHCVLVESPEALNIIKEGHIKSIISLLDKHGRNHKVLDVLCSLCVCHGVAVRSNQHLICDNLLPGRDLLLQTRLVNHVSSMRPNIFLGVSEGSAQYKKWYYELMVDHTEPFVTAEATHLRVGWASTEGYSPYPGGGEEWGGNGVGDDLFSYGFDGLHLWSGCIARTVSSPNQHLLRTDDVISCCLDLSAPSISFRINGQPVQGMFENFNIDGLFFPVVSFSAGIKVRFLLGGRHGEFKFLPPPGYAPCYEAVLPKEKLKVEHSREYKQERTYTRDLLGPTVSLTQAAFTPIPVDTSQIVLPPHLERIREKLAENIHELWVMNKIELGWQYGP | 4
NT^R169L (human RyR2 residues 1-906, cMyc-tagged, R169L) (domain or fragment, UniProt Q92736 1-906, looked up, cardiac ryanodine receptor (RyR2), human, N-terminus residues 1-906 with the CPVT mutation R169L; Mutation made by site-directed mutagenesis in the NT^WT plasmid; a variant reported in patients; also called type I variant; source: HEK293, transiently transfected, in cell homogenate (cross-linking) or CHAPS-solubilized lysate (co-IP)) MADGGEGEDEIQFLRTDDEVVLQCTATIHKEQQKLCLAAEGFGNRLCFLESTSNSKNVPPDLSICTFVLEQSLSVRALQEMLANTVEKSEGQVDVEKWKFMMKTAQGGGHRTLLYGHAILLRHSYSGMYLCCLSTSRSSTDKLAFDVGLQEDTTGEACWWTIHPASKQLSEGEKVRVGDDLILVSVSSERYLHLSYGNGSLHVDAAFQQTLWSVAPISSGSEAAQGYLIGGDVLRLLHGHMDECLTVPSGEHGEEQRRTVHYEGGAVSVHARSLWRLETLRVAWSGSHIRWGQPFRLRHVTTGKYLSLMEDKNLLLMDKEKADVKSTAFTFRSSKEKLDVGVRKEVDGMGTSEIKYGDSVCYIQHVDTGLWLTYQSVDVKSVRMGSIQRKAIMHHEGHMDDGISLSRSQHEESRTARVIRSTVFLFNRFIRGLDALSKKAKASTVDLPIESVSLSLQDLIGYFHPPDEHLEHEDKQNRLRALKNRQNLFQEEGMINLVLECIDRLHVYSSAAHFADVAGREAGESWKSILNSLYELLAALIRGNRKNCAQFSGSLDWLISRLERLEASSGILEVLHCVLVESPEALNIIKEGHIKSIISLLDKHGRNHKVLDVLCSLCVCHGVAVRSNQHLICDNLLPGRDLLLQTRLVNHVSSMRPNIFLGVSEGSAQYKKWYYELMVDHTEPFVTAEATHLRVGWASTEGYSPYPGGGEEWGGNGVGDDLFSYGFDGLHLWSGCIARTVSSPNQHLLRTDDVISCCLDLSAPSISFRINGQPVQGMFENFNIDGLFFPVVSFSAGIKVRFLLGGRHGEFKFLPPPGYAPCYEAVLPKEKLKVEHSREYKQERTYTRDLLGPTVSLTQAAFTPIPVDTSQIVLPPHLERIREKLAENIHELWVMNKIELGWQYGP | 4
